Assays:
[1] = biological target: T1, human IL-36γ, truncated (human, UniProt Q9NZH8 18-169); assay: cell-based or functional assay
T1 sequence: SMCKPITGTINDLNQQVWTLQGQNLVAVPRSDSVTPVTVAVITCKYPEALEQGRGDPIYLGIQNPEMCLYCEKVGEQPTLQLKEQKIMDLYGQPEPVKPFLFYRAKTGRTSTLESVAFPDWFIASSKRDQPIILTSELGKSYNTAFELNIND

[2] = biological target: T2, human IL-36α(R12), truncated (human, UniProt Q9UHA7 6-158); assay: cell-based or functional assay
T2 chain: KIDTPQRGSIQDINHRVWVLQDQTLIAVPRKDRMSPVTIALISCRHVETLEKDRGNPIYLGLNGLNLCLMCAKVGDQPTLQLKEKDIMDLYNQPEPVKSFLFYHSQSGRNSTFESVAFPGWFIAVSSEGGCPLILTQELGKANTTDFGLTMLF

[3] = biological target: T3, cynomolgus IL-36α, truncated (cynomolgus macaque (Macaca fascicularis), UniProt Q9UHA7 14-158 (human entry), limits assumed); assay: cell-based or functional assay
T3 chain: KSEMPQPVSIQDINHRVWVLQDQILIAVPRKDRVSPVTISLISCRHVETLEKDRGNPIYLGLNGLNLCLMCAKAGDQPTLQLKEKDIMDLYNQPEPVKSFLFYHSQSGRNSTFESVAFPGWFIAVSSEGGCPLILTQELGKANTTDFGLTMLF

[4] = biological target: T1, human IL-36γ, truncated; assay: cell-based or functional assay; remark: listed apart in the source
[5] = biological target: T4, cynomolgus IL-36γ, truncated (cynomolgus macaque (Macaca fascicularis), UniProt Q9NZH8 18-167 (human entry), limits assumed); assay: cell-based or functional assay
T4 chain: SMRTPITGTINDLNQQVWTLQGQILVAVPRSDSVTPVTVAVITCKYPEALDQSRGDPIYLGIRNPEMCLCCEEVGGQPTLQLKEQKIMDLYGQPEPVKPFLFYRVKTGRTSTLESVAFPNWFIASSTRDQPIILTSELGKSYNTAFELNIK

[6] = biological target: T1, human IL-36γ, truncated; assay: cell-based or functional assay; remark: listed apart in the source
[7] = biological target: T2, human IL-36α(R12), truncated; assay: cell-based or functional assay
[8] = biological target: T1, human IL-36γ, truncated; assay: SPR, Biacore, 1:1 Langmuir fit; heads of c3 and c4 printed swapped
Procedure: (§1) The humanized antibodies obtained in Example 6 were tested for their binding to recombinant human or cynomolgus macaque IL36a and IL-36γ in Biacore assays. The association time was set to 60 seconds, and the final dissociation time was set to 600 seconds. Equilibrium dissociation constant KD (kd/ka) of exemplary antibodies was determined using a 1:1 Langmuir fit model (see Tables 17-18 below).

[9] = biological target: T2, human IL-36α(R12), truncated; assay: as above
Procedure: as §1

[10] = biological target: T4, cynomolgus IL-36γ, truncated; assay: as above
Procedure: as §1

[11] = biological target: T3, cynomolgus IL-36α, truncated; assay: as above
Procedure: as §1

[12] = biological target: T1, human IL-36γ, truncated; assay: cell-based or functional assay; remark: listed apart in the source
[13] = biological target: T1, human IL-36γ, truncated; assay: SPR, Biacore T200, antibody on chip, IL-36 as analyte, 1:1 Langmuir fit
How it was run: (§2)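 Single-cycle kinetics: mouse/human chimeric or mouse antibodies captured (~200 RU) via anti-human or anti-mouse Fc on CM5, then increasing IL-36 concentrations injected, 300 s association, 1200 s dissociation. Alternatively ~2000 RU antibody amine-coupled, analyte 30 μL/min for 420 s, 3600 s dissociation, 25° C; double-referenced sensorgrams.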

[14] = biological target: T2, human IL-36α(R12), truncated; assay: as above
How it was run: as §2

[15] = biological target: T1, human IL-36γ, truncated; assay: SPR, Biacore, 1:1 Langmuir fit
Procedure: as §1

[16] = biological target: T2, human IL-36α(R12), truncated; assay: SPR, Biacore, 1:1 Langmuir fit
Procedure: as §1

[17] = biological target: T4, cynomolgus IL-36γ, truncated; assay: SPR, Biacore, 1:1 Langmuir fit
Procedure: as §1

[18] = biological target: T3, cynomolgus IL-36α, truncated; assay: SPR, Biacore, 1:1 Langmuir fit
Procedure: as §1

[19] = biological target: T2, human IL-36α(R12), truncated; assay: ELISA binding screen and HaCaT assay
[20] = biological target: T4, cynomolgus IL-36γ, truncated; assay: ELISA binding screen and HaCaT assay
[21] = biological target: T3, cynomolgus IL-36α, truncated; assay: ELISA binding screen and HaCaT assay

B1: 144D464A (antibody, V domains shown)
VH: EVQLQQSGAELVKPGASVRLSCTASGFNIKDTYIHWVKQRPEQGLEWIGRIDPAIGTTRYDPKFQGKATITTDTSSDTVHLQFSSLTSEDTAVYYCARLHYFGNNFFFDYWGQGTTLTVSS
VL: QAVVTQESALTTSPGEAVTLTCRSSSGAVTTSNYANWVQEKPDHLFAGLIGGTNDRAPGVPARFSGSLIGDKAALTITGAQTEDEAIYFCALWFSNHWVFGGGTKLTVL
notes: Mouse monoclonal from hybridoma; mouse IgG heavy and lambda light chain; also called mouse antibody 144D464A
IC50 of IL-8 secretion, primary human monocytes, 6 nM human IL-36γ, FIG. 5C [1]: 13.2 nM | IC50 of IL-8 secretion, HaCaT, 10 nM human IL-36α, FIG. 1B [2]: 6.49 nM | IC50 of IL-8 secretion, HaCaT, 10 nM cynomolgus IL-36α, FIG. 2A [3]: 5.3 nM | IC50 of IL-8 secretion, HaCaT, 10 nM human IL-36γ, FIG. 1E [4]: 7.39 nM | IC50 of IL-8 secretion, HaCaT, 10 nM cynomolgus IL-36γ, FIG. 2C [5]: 15.6 nM | IC50 of IL-8 secretion, primary human keratinocytes, 8.4 nM human IL-36γ, FIG. 4D [6]: 13.3 nM | IC50 of IL-8 secretion, primary human keratinocytes, 8 nM human IL-36α, FIG. 4B [7]: 13.4 nM | koff [8]: 0.00034 s⁻¹ | kon [8]: 388000 M⁻¹ s⁻¹ | koff [9]: 0.000362 s⁻¹ | kon [9]: 274000 M⁻¹ s⁻¹ | koff [10]: 0.000427 s⁻¹ | kon [10]: 493000 M⁻¹ s⁻¹ | koff [11]: 0.000338 s⁻¹ | kon [11]: 465000 M⁻¹ s⁻¹ | IC50 (read off the curve) [12]: ~8 nM | Kd [13]: 3.81 nM | koff [13]: 0.00032 s⁻¹ | kon [13]: 84000 M⁻¹ s⁻¹ | Kd [14]: 2.53 nM | koff [14]: 0.000309 s⁻¹ | kon [14]: 122000 M⁻¹ s⁻¹ | Kd [15]: 0.877 nM | Kd [16]: 1.32 nM | Kd [17]: 0.865 nM | Kd [18]: 0.727 nM

B2: 144L472A (antibody, V domains shown)
VH: EVQLQQSGAELVKPGASVKLSCTVSGFNIKDTYMYWVKQRPEQGLEWIGRIDPANGYAKYDPKFQGKATLTADTSSNTAYLQLSSLTSEDTAVYFCARFHWYDSAFYFDFWGQGTTLTVSS
VL: QAVVTQESALTTSPGETVTLTCRSSSGAVTTSNYANWVQEKPDHLFTGLIGGTNNRAPGVPARFSGSLIGDKAALTITGAQTEDEAIYFCGLWYSNHWVFGGGTKLTVL
notes: Mouse monoclonal from hybridoma; mouse IgG heavy and lambda light chain
IC50 of IL-8 secretion, primary human monocytes, 6 nM human IL-36γ, FIG. 5C [1]: 15.7 nM | IC50 of IL-8 secretion, primary human monocytes, 50 nM human IL-36γ, FIG. 5D [1]: 40 nM | IC50 of IL-8 secretion, HaCaT, 10 nM cynomolgus IL-36α, FIG. 2B [3]: 63.2 nM | IC50 of IL-8 secretion, HaCaT, 10 nM human IL-36γ, FIG. 1F [4]: 11.9 nM | IC50 of IL-8 secretion, HaCaT, 10 nM cynomolgus IL-36γ, FIG. 2D [5]: 17.1 nM | binding result [19]: binds | Kd [13]: 1000 nM | koff [13]: 0.00208 s⁻¹ | kon [13]: 2070 M⁻¹ s⁻¹

B3: 144D666C (antibody, V domains shown)
VH: EVQLQQSGAELVKPGASVKLTCTASGFNIKDTYIYWVKQRPAQGLEWIGRIDPANAYTKFDPKFQGKATLTADTSSNTAYLQLSSLTSEDTAVYYCTRFHWYGSSFFFDYWGQGTTLTVSS
VL: QAVVTQESALTTSPGETVTLTCRSSTGAVTTSNYANWVQEKPDHLFTGLIGGTDNRPPGVPARFSGSLIGDKAALTITGAQTEDEAIYFCALWYSNLWVFGGGTKLTVL
notes: as for B2
IC50 of IL-8 secretion, HaCaT, 10 nM human IL-36α, FIG. 1A [2]: 49.5 nM | IC50 of IL-8 secretion, HaCaT, 10 nM human IL-36γ, FIG. 1D [4]: 5.12 nM | binding result [20]: binds | binding result [21]: binds | Kd [13]: 1.08 nM | koff [13]: 0.000676 s⁻¹ | kon [13]: 625000 M⁻¹ s⁻¹ | Kd [14]: 18 nM | koff [14]: 0.00184 s⁻¹ | kon [14]: 102000 M⁻¹ s⁻¹

Source: patent US20210380675A1 (Kyowa Kirin, published 2021)
